Experimental findings from article PMC9887757 (2023) are described below.

In the experiment the target is 41F17. Put plainly: SPR; avidity. (In general: In SPR one partner is held on a chip, and binding of the other changes the refractive index at the surface.)

B1: BKPyV VLP genotype Ia (VP1 virus-like particles) (complex)
chain: MAPTKRKGECPGAAPKKPKEPVQVPKLLIKGGVEVLEVKTGVDAITEVECFLNPEMGDPDENLRGFSLKLSAENDFSSDSPERKMLPCYSTARIPLPNLNEDLTCGNLLMWEAVTVQTEVIGITSMLNLHAGSQKVHEHGGGKPIQGSNFHFFAVGGEPLEMQGVLMNYRSKYPDGTITPKNPTAQSQVMNTDHKAYLDKNNAYPVECWVPDPSRNENARYFGTFTGGENVPPVLHVTNTATTVLLDEQGVGPLCKADSLYVSAADICGLFTNSSGTQQWRGLARYFKIRLRKRSVKNPYPISFLLSDLINRRTQRVDGQPMYGMESQVEEVRVFDGTERLPGDPDMIRYIDKQGQLQTKML
B1 yielded a Kd of 0.34 nM.
